Assay [1] deals with syndecan-1 (human (endogenous in Caco-2)) (UniProt P18827).
Assay [2] has the same target. This is another data set of the same source.

UniProt P18827, sequence (P18827 23-310): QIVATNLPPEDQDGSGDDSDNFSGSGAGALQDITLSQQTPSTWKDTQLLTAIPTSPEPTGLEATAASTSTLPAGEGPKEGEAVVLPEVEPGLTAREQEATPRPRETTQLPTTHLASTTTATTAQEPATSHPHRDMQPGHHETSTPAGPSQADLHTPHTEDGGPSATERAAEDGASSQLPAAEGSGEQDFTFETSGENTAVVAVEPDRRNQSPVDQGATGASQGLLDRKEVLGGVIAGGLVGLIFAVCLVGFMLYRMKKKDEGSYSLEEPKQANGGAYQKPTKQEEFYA

“recombinant Trichinella spiralis C-type lectin with GST tag (GST-rTsCTL) (natural protein)”: the reduction of the rTsCTL (10 µg/mL) promotion of larval invasion of Caco-2 cells by 2.5-20 mM β-xyloside in assay [1] is 46.8%. Further, the inhibition of the rTsCTL (10 µg/mL) promotion of larval invasion of Caco-2 cells by 2.5-20 µM Stattic in assay [2] is 49.3%.

These data come from paper PMC10546719.
